Results as given in article PMC4695401 (Chemistry & biology, 2015).
Ends that are not written are not given here. PEG = not defined here

Molecular target: BRD-containing DNA-PKcs fragment (aa1878-2700) (UniProt P78527 1878-2700)
Experiment: pull-down

BRD-containing DNA-PKcs fragment (aa1878-2700), sequence (P78527 1878-2700): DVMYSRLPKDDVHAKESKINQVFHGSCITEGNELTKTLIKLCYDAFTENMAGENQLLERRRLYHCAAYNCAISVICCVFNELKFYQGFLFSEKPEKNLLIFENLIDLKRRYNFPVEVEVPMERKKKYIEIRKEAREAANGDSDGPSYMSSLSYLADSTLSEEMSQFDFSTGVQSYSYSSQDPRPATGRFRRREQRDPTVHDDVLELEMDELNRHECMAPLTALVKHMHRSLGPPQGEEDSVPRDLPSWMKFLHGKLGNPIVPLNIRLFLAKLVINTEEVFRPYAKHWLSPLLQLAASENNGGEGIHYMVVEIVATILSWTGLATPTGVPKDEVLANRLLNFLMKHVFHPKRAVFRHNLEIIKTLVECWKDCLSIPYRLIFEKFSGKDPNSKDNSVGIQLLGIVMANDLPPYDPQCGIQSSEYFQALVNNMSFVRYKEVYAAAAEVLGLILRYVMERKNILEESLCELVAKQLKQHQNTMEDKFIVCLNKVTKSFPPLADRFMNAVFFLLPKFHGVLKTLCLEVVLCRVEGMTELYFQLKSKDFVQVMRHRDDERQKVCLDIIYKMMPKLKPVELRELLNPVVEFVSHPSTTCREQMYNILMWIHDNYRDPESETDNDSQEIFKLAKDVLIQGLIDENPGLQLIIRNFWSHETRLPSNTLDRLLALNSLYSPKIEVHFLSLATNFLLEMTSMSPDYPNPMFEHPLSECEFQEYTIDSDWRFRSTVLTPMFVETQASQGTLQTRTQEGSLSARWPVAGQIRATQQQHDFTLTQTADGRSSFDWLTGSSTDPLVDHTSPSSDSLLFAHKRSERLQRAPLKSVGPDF

## SGRGK(Ac)TGGKARAKAKSR-{PEG-biotin} (reading uncertain) [H2AX K5ac-containing peptide]
  binding result: binds
